In patent publication EP4748847A1, “PEPTIDE COMPLEX HAVING VEGFR -2 AGONIST ACTIVITY” (Peptidream Inc, priority 2023, dated 2025):
Bridges are numbered along the chain shown (N, C = ends). [ ]: non-standard residue; d: D form. hTyr = N[C@@H](CCc1ccc(O)cc1)C(=O)O; Hyp = O=C(O)[C@@H]1C[C@@H](O)CN1; Chg = N[C@H](C(=O)O)C1CCCCC1; Tle = CC(C)(C)[C@H](N)C(=O)O; Atb = not defined here; F4C = not defined here

Biological target: VEGFR-2 (human, UniProt P35968 20-1356)
Assay: cell-based or functional assay

Sequence of VEGFR-2 (P35968 20-1356): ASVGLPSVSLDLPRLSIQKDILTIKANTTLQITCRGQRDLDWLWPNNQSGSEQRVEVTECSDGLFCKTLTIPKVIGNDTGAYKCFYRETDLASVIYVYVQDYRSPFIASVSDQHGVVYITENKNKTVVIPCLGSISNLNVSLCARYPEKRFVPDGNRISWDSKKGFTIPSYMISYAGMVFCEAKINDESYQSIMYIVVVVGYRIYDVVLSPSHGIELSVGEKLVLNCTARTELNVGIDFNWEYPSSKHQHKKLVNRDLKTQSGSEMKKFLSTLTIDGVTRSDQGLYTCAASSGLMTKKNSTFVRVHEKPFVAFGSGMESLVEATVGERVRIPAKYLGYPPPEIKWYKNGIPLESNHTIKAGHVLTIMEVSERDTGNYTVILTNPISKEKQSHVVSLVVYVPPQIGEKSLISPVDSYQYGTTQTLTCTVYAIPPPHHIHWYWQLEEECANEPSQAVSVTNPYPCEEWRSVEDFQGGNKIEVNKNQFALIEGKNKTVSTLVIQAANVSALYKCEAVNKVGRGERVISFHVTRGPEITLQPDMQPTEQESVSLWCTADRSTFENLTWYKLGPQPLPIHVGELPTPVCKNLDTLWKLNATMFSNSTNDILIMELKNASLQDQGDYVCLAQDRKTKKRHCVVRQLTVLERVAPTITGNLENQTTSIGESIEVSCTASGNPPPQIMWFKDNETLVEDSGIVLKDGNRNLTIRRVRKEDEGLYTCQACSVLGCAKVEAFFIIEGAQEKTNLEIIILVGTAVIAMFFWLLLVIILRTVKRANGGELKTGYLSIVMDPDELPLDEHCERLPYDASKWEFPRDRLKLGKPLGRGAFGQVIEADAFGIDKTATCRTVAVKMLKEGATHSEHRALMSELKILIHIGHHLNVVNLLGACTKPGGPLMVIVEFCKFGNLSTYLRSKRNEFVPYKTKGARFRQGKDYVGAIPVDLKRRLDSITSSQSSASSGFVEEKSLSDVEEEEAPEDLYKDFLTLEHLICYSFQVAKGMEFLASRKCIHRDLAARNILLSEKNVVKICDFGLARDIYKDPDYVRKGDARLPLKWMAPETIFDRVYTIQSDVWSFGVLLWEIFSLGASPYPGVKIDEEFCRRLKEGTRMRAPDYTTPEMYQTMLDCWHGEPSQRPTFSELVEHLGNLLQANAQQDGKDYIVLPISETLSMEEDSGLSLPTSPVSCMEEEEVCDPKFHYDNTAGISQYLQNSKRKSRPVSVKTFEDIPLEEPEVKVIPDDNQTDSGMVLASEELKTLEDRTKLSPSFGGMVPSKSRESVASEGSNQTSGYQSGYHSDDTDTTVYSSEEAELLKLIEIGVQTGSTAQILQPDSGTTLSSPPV

Row | pERK Assay Results (AlphaLISA p-Erk1/2, HUVEC) | Binder
1 | ≥ 50 % activity at 20 nM | {CH2CO}-WW[Tle]DVKDD[Atb]YF[hTyr]DCG-NH2 (thioether N-14; reading uncertain; also: homodimer: Lys6 joined to Lys6 of second copy by cPEG17c (Linker Structure No. 4)) [Peptide complex Dimer Structure No. 48]
2 | ≥ 50 % activity at 5 nM | {CH2CO}-WW[Tle]DVKDD[Atb]Y[F4G][hTyr][Hyp]CG-NH2 (thioether N-14; reading uncertain; also: dimer: Lys6 joined to Lys6 of second copy by OCOPEG13OCO (Linker Structure No. 5)) [Peptide complex Dimer Structure No. 54]
3 | ≥ 50 % activity at 20 nM | {CH2CO}-WWVDVKDDLYFVDCG-NH2 (thioether N-14; also: homodimer: Lys6 joined to Lys6 of second copy by OCOPEG17OCO (Linker Structure No. 6)) [Peptide complex Dimer Structure No. 50]
4 | ≥ 50 % activity at 20 nM | {CH2CO}-WW[hTyr]DVKDD[Atb]Y[F4G]VDCG-NH2 (thioether N-14; reading uncertain; also: dimer: Lys6 joined to Lys6 of second copy by OCOPEG13OCO (Linker Structure No. 5)) [Peptide complex Dimer Structure No. 56]
5 | ≥ 50 % activity at 5 nM | {CH2CO}-WW[Tle]DVKDD[Atb]Y[F4G][hTyr]DCG-NH2 (thioether N-14; reading uncertain; also: dimer: Lys6 joined to Lys6 of second copy by OCOPEG13OCO (Linker Structure No. 5)) [Peptide complex Dimer Structure No. 55]
6 | ≥ 50 % activity at 10 nM | {CH2CO}-WW[Tle]DVKDDLY[F4C][hTyr]DCG-NH2 (thioether N-14; not fully specified (residue 6); reading uncertain; also: homodimer: Lys6 joined to Lys6 of second copy by cPEG17c (Linker Structure No. 4)) [Peptide complex Dimer Structure No. 30]
7 | ≥ 50 % activity at 10 nM | {CH2CO}-WW[Tle]D[Chg]KDDLYF[hTyr]DCG-NH2 (thioether N-14; not fully specified (residue 6); also: homodimer: Lys6 joined to Lys6 of second copy by cPEG17c (Linker Structure No. 4)) [Peptide complex Dimer Structure No. 28]
8 | ≥ 50 % activity at 20 nM | {CH2CO}-WW[hTyr]DVKDD[Atb]Y[F4G][hTyr]DCG-NH2 (thioether N-14; reading uncertain; also: dimer: Lys6 joined to Lys6 of second copy by OCOPEG13OCO (Linker Structure No. 5)) [Peptide complex Dimer Structure No. 57]
9 | ≥ 50 % activity at 100 nM | {CH2CO}-WW[Tle]QVKDDLYF[hTyr]DCG-NH2 (thioether N-14; not fully specified (residue 6); also: homodimer: Lys6 joined to Lys6 of second copy by cPEG17c (Linker Structure No. 4)) [Peptide complex Dimer Structure No. 26]
10 | ≥ 50 % activity at 20 nM | {CH2CO}-WW[Tle]DVKDDLYF[hTyr]DCG-NH2 (thioether N-14; also: homodimer: Lys6 joined to Lys6 of second copy by cPEG17c (Linker Structure No. 4)) [Peptide complex Dimer Structure No. 44]
